Laboratory results: patent US20190309056A1 (VIB VZW, published 2019)

molecular target: T1, recombinant human Macrophage Migration Inhibitory Factor (MIF 2-115) (human, UniProt P14174 2-115); assay: SPR (summary in the discussion)
T1 construct: rhMIF bought from R&D Systems; The background describes MIF as a homotrimer but also as monomer, dimer or higher oligomers; In the cell assays (THP-1, human PBMC) the MIF is the cells' own; also called rhMIF; human MIF
T1 sequence (P14174 2-115): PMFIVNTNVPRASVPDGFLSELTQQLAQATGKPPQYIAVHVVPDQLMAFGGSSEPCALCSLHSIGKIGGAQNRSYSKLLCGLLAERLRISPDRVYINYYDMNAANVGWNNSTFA

| Binder | binding result |
| --- | --- |
| anti-MIF ISVD F10 (VHH, Family III; Expressed from pAX100, purified by IMAC) VHH: EVQLVESGGGLVQDGGSLRLSCAASGRTASIQVMGWFRQAPGKEREFVGNIGWNYGLTLYPDSVKGRFTISRGNAKNAVYLQMNNLKPEDTAVYYCAARIGTTTYDYWGQGTQVTVSS | binds |

molecular target: T1, recombinant human Macrophage Migration …; assay: SPR (BIAcore T200), rhMIF immobilised on CM5 chip, 1:1 Langmuir model
Protocol: Surface plasmon resonance (SPR) experiments were performed on a BIAcore T200 system (GE Healthcare). Recombinant mouse MIF (rmMIF) or rhMIF (R&D systems) was immobilized on a CM5 chip (GE Healthcare). Briefly, the carboxylated dextran matrix was activated by injection of 0.2 M N-ethyl-N′-(3-[…]) carbodiimide (EDC) and 0.05 M N-hydroxysuccinimide (NHS) at a flow rate of 5 μl/min for 7 min. A rmMIF solution of 5 μg/ml prepared in coupling buffer (50 mM sodium acetate pH 4.0) was subsequently injected until 200 R.U. was immobilised. Next, the surface immobilisation was blocked by injection of 1 M ethanolamine hydrochloride for 7 min. As a reference, the surface in another flow cell was used and treated only with EDC, NHS, and ethanolamine. Data for the rmMIF-ISVD interaction were collected in the format of a kinetic titration (27). […] Analyte injections were performed with association phases of 180 s and a dissociation phase of 600 s. This was followed by 5 pulses of 15 μl regeneration buffer (HBS+100 mM NaOH). Prior to data analysis, reference and zero concentration data were subtracted from the sensorgrams. The data were analyzed with a 1:1 Langmuir binding model (27). Data for the rhMIF-ISVD interaction were collected as described elsewhere (28) and analyzed with a 1:1 Langmuir binding model.

| Binder | Kd [nM] |
| --- | --- |
| anti-MIF ISVD H5 (VHH, Family IV; Expressed from pAX100, purified by IMAC) VHH: EVQLVESGGGLVQPGGSLRLSCVASGFTFRTYAMSWVRQAPGKGSEWVSTINNGGGVTGYADSVEGRFTISRDNAKNTLYLQMNSLKPEDTAVYYCAKGTSRGQGTQVTVSS | 27.5 |
| anti-MIF ISVD B5 (VHH, Family I. Expressed from pAX100, purified by IMAC) VHH: EVQLVESGGGLVQAGGSLRLSCAASGRSFSNYIMGWFRQAPGKEREFVANISWNYGTTFYADSVKGRFTISGDSAKNTVYLQMTSLKPEDTAVYYCAARPVRGGRNFDYWGQGTQVTVSS | 37.8 |
| anti-MIF ISVD E10 (VHH, Family VII; Monovalent llama VHH expressed in E. coli from pAX100 and purified by IMAC (His-Trap) and gel filtration; also called Nb E10; monovalent E10) VHH: EVQLVESGGGSVQAGDSLRLSCAASGRTLSNSIMGWFRQAPGKEREFVANINWSGTSRLYADSVKGRFTISRDNTKSTVYLQMNSLKPEDTAIYYCAARSSTMSATDYWGQGTQVTVSS | 64.5 |
| anti-MIF ISVD D12 (VHH, Family VI; Expressed from pAX100, purified by IMAC) VHH: EVQLVESGGGLVQAGGSLRLSCAASGRTISSYIVGWFRQAPGKEREFVANIGWSGSMPLYADSVKGRFTIFRDNAKNTVYLEMNKLKPEDTAVYYCAARGAGQLTNDYWGQGTQVTVSS | 166 |
| anti-MIF ISVD E5 (VHH, Family V. Expressed from pAX100, purified by IMAC; also called Nb E5) VHH: EVQLVESGGGLVHAGGSLRLSCAASGRTFSSYFMGWFRQAPGKAREFVANINFSGGTTVYASSVKGRFTISRDNSKNTVYLQMNSVKPEDTAVYYCVARGLTQDYDYWGQGTQVTVSS | 9.41 |
| anti-MIF ISVD H9 (VHH, Family V. Expressed from pAX100, purified by IMAC) VHH: EVQLVESGGGLVHAGGSLRLSCAASGRTSSTYFMGWFRQAPGKAREFVANINFSGGTTVYASSVKGRFTISRDNSKNTVYLQLNSVKPEDTAVYYCSARGLNQEYDFWGQGTQVTVSS | 80.3 |
| anti-MIF ISVD D4 (VHH, Family III; Expressed from pAX100, purified by IMAC) VHH: KVQLVESGGGLVQDGGSLRLSCAASGRTASIQVMGWFRQAPGKEREFVGNIGWNYGLTLYPDSVKGRFTISRDNAKNTVYLQMNNLKPEDTAVYYCAARIGTTTYDYWGQGTQVTVSS | 35 |
| anti-MIF ISVD D2 (VHH, Family III; Expressed from pAX100, purified by IMAC) VHH: EVQLVESGGGLVQDGGSLRLSCAASGRTASIHTMGWFRQAPGQERGFVGNIGWNYGLTLYADSVKGRFTISRDNAKNTVYLQMNNLKPEDTAVYYCAARIGTTPYDYWGQGTQVTVSS | 16.5 |
| anti-MIF ISVD A2 (VHH, Family III; Expressed from pAX100, purified by IMAC) VHH: EVQLVESGGGLVQDGGSLRLSCAASGRTASIQVMGWFRQAPGKEREFVGNIGWNYGLTLYADPVKGRFTISRDNAKNTVYLQMNNLKPEDTAVYYCAARIGTITYDYWGQGTQVTVSS | 2.96 |
| anti-MIF ISVD C10 (VHH, Family II; Expressed from pAX100, purified by IMAC) VHH: EVQLVESGGGLVQAGGSLRLSCAASGRTSSIVAIGWFRQAPGKEREFVSNIGWKFGSTVYVDSVKGRFTISKDNAKNTVYLQMNSLKPEDTAVYRCAARSDGRVYDSWGQGTQVTVSS | 41.2 |
